Data set [1] concerns the target IL-8 (human, UniProt P10145 28-99). Nature of the data set: electrochemical aptasensor (SWV); serum; 0-30 ng/ml; Serum as wound-exudate mimic; about 30 min incubation to equilibrium; aptamers immobilized at 10 uM in TE buffer, MCH passivation; assay pH and temperature not. The conditions noted are these: protein: commercial; label: 5' C6 thiol; 3' methylene blue; hairpin.

Data set [2] concerns the target TNF-alpha (human, UniProt P01375 77-233). Nature of the data set: electrochemical aptasensor (SWV); serum; 0-2 ng/ml; Serum as wound-exudate mimic; about 30 min incubation to equilibrium; aptamers immobilized at 10 uM in TE buffer, MCH passivation; assay pH and temperature not. The conditions noted are these: protein: commercial; chain copies: 3; label: 5' methylene blue; 3' C3 thiol; hairpin.

Data set [3] deals with IL-6 (human, UniProt P05231 30-212). Nature of the data set: electrochemical aptasensor (SWV); serum; 0-30 ng/ml; Serum as wound-exudate mimic; about 30 min incubation to equilibrium; aptamers immobilized at 10 uM in TE buffer, MCH passivation; assay pH and temperature not. The conditions noted are these: protein: commercial; label: 5' C6 thiol; 3' methylene blue; hairpin.
Sequence of IL-6 (P05231 30-212): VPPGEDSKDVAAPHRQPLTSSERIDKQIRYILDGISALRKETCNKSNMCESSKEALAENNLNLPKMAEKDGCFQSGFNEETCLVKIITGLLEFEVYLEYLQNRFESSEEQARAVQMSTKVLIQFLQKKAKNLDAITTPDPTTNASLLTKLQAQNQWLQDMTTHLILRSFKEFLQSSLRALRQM

These results are taken from PMC8139589, “A flexible multiplexed immunosensor for point-of-care in situ wound monitoring”.

Sequence of IL-8 (P10145 28-99): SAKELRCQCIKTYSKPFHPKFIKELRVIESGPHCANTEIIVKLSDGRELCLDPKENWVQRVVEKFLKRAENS
Sequence of TNF-alpha (P01375 77-233): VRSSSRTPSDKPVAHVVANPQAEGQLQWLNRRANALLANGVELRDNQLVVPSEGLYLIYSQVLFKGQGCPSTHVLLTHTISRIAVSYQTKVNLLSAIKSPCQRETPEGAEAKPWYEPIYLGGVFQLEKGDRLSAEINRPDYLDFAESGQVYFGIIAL

Turning to GGGGGCUUAUCAUUCCAUUUAGUGUUAUGAUAACC (structured_RNA, none printed (ribo)) [IL-8 aptamer], in data set [1], the binding result is given as “binds”.
With GGAGUAUCUGAUGACAAUUCGGAGCUCC (structured_RNA, phosphorothioate at all linkages) [TNF-alpha aptamer], the binding result in data set [2] is on record as “binds”.
Regarding GGTGGCAGGAGGACTATTTATTTGCTTTTCT (structured_DNA) [IL-6 aptamer], the binding result in data set [3] is “binds”.
